Assay results as given in patent US20260242735A1 (UNIVERSIT T BASEL, published 2026).

B1: Refmab #1 (antibody, human IgG1, V domains shown)
VH: EVQLVQSGAEVKKPGSSVKVSCKASGYTITDSNIHWVRQAPGQSLEWIGYIYPYNGGTDYNQKFKNRATLTVDNPTNTAYMELSSLRSEDTAFYYCVNGNPWLAYWGQGTLVTVSS
VL: DIQLTQSPSTLSASVGDRVTITCRASESLDNYGIRFLTWFQQKPGKAPKLLMYAASNQGSGVPSRFSGSGSGTEFTLTISSLQPDDFATYYCQQTKEVPWSFGQGTKVEVK
notes: also called hP67.6; Absolute Antibody Cat. No. Ab00283-10.0
B2: Refmab #6 (antibody, human IgG1, V domains shown)
VH: QVQLQQPGAEVVKPGASVKMSCKASGYTFTSYYIHWIKQTPGQGLEWVGVIYPGNDDISYNQKFQGKATLTADKSSTTAYMQLSSLTSEDSAVYYCAREVRLRYFDVWGQGTTVTVSS
VL: EIVLTQSPGSLAVSPGERVTMSCKSSQSVFFSSSQKNYLAWYQQIPGQSPRLLIYWASTRESGVPDRFTGSGSGTDFTLTISSVQPEDLAIYYCHQYLSSRTFGQGTKLEIK
B3: Refmab #3 (antibody, human IgG1, V domains shown)
VH: QVQLVQSGAEVKKPGSSVKVSCKASGYTFTDYNMHWVRQAPGQGLEWIGYIYPYNGGTGYNQKFKSKATITADESTNTAYMELSSLRSEDTAVYYCARGRPAMDYWGQGTLVTVSS
VL: DIQMTQSPSSLSASVGDRVTITCRASESVDNYGISFMNWFQQKPGKAPKLLIYAASNQGSGVPSRFSGSGSGTDFTLTISSLQPDDFATYYCQQSKEVPWTFGQGTKVEIK
B4: Refmab #4 (antibody, human IgG1, V domains shown)
VH: QVQLVQSGAEVKKPGESVKVSCKASGYTFTNYGMNWVKQAPGQGLEWMGWINTYTGEPTYADKFQGRVTMTTDTSTSTAYMEIRNLGGDDTAVYYCARWSWSDGYYVYFDYWGQGTSVTVSS
VL: DIVMTQSPDSLTVSLGERTTINCKSSQSVLDSSTNKNSLAWYQQKPGQPPKLLLSWASTRESGIPDRFSGSGSGTDFTLTIDSPQPEDSATYYCQQSAHFPITFGQGTRLEIK

Target: human CD33 W22T (human, UniProt P20138 18-364)
Sequence (P20138 18-364 W22T limits assumed): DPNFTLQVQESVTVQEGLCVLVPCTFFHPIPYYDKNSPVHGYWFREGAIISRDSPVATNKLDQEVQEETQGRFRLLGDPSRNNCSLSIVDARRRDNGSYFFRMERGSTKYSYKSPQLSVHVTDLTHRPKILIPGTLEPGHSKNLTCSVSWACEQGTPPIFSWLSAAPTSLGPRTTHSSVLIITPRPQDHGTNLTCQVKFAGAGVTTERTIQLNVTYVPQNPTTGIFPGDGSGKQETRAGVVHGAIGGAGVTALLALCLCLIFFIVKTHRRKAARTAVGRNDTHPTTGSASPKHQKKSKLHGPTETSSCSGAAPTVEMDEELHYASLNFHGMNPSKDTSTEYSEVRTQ
Assay: flow cytometry, transfected cells

| binding result | Binder |
| --- | --- |
| no binding (tested: below 20%) | B1 |
| no binding (tested: below 20%) | B2 |
| no binding (tested: below 20%) | B3 |

Target: human CD33 W22P (human, UniProt P20138 18-364)
Sequence (P20138 18-364 W22P limits assumed): as the sequence (P20138 18-364 W22T limits assumed) above, with T5P counted along it
Assay: flow cytometry, transfected cells

| binding result | Binder |
| --- | --- |
| no binding (tested: below 20%) | B1 |
| no binding (tested: below 20%) | B2 |
| no binding (tested: below 20%) | B3 |

Target: human CD33 W22E (human, UniProt P20138 18-364)
Sequence (P20138 18-364 W22E limits assumed): as the sequence (P20138 18-364 W22T limits assumed) above, with T5E counted along it
Assay: flow cytometry, transfected cells

| binding result | Binder |
| --- | --- |
| no binding (tested: below 20%) | B1 |
| no binding (tested: below 20%) | B2 |
| no binding (tested: below 20%) | B3 |

Target: human CD33 W22R (human, UniProt P20138 18-364)
Sequence (P20138 18-364 W22R limits assumed): as the sequence (P20138 18-364 W22T limits assumed) above, with T5R counted along it
Assay: flow cytometry, transfected cells

| binding result | Binder |
| --- | --- |
| no binding (tested: below 20%) | B1 |
| no binding (tested: below 20%) | B2 |
| no binding (tested: below 20%) | B3 |

Target: human CD33 extracellular region N20G (human, UniProt P20138 21-259)
Sequence (P20138 other isoform, or with tags, fused parts or gaps N20G N20G): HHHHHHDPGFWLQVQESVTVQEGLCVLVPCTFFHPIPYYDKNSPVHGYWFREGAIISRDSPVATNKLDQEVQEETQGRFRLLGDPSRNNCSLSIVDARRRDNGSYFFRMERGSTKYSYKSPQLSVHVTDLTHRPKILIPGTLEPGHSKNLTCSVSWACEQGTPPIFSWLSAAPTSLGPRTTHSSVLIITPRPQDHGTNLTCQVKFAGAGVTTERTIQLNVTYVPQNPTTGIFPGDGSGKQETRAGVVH
Assay: BLI Octet, IgG captured on AHC, CD33 analyte;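 further: CD33 variants and wild type run as analyte at 5, 50 and 500 nM, 700 s association then 1200 s dissociation, buffer-only reference subtracted, global 1:1 fit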
Description: (§1) Human CD33 wt and variants, were used as analyte at 3 different concentrations (500, 50 and 5 nM). Association of the analyte to the antibodies was monitored for 700 s and dissociation of the analyte from the antibodies was monitored for 1200 s. Reference subtraction was performed against buffer only wells. AHC tips were regenerated using 10 mM Glycine-HCl pH 1.7. Data were analyzed with Octet Data Analysis software HT 12.0. Data were fitted to a 1:1 binding model. Kinetic rates ka and kd and response signal were globally fitted.

| % WT binding | Binder |
| --- | --- |
| 0% | B1 |
| 115% | B4 |
| 0% | B3 |

Target: human CD33 extracellular region N20D (human, UniProt P20138 21-259)
Sequence (P20138 other isoform, or with tags, fused parts or gaps N20D N20D): as the sequence (P20138 other isoform, or with tags, fused parts or gaps N20G N20G) above, with G9D counted along it
Assay: BLI Octet, IgG captured on AHC, CD33 analyte;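 further: CD33 variants and wild type run as analyte at 5, 50 and 500 nM, 700 s association then 1200 s dissociation, buffer-only reference subtracted, global 1:1 fit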
Description: as §1

| % WT binding | Binder |
| --- | --- |
| 0% | B1 |
| 91.3% | B4 |
| 0% | B3 |

Target: human CD33 extracellular region N20V (human, UniProt P20138 21-259)
Sequence (P20138 other isoform, or with tags, fused parts or gaps N20V N20V): as the sequence (P20138 other isoform, or with tags, fused parts or gaps N20G N20G) above, with G9V counted along it
Assay: BLI Octet, IgG captured on AHC, CD33 analyte;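 further: CD33 variants and wild type run as analyte at 5, 50 and 500 nM, 700 s association then 1200 s dissociation, buffer-only reference subtracted, global 1:1 fit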
Description: as §1

| % WT binding | Binder |
| --- | --- |
| 18.6% | B1 |
| 96.5% | B4 |
| 6.34% | B3 |

Target: human CD33 extracellular region F21S (human, UniProt P20138 22-259)
Sequence (P20138 other isoform, or with tags, fused parts or gaps F21S F21S): as the sequence (P20138 other isoform, or with tags, fused parts or gaps N20G N20G) above, with G9N, F10S counted along it
Assay: BLI Octet, IgG captured on AHC, CD33 analyte;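 further: CD33 variants and wild type run as analyte at 5, 50 and 500 nM, 700 s association then 1200 s dissociation, buffer-only reference subtracted, global 1:1 fit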
Description: as §1

| % WT binding | Binder |
| --- | --- |
| 0% | B1 |
| 78.3% | B4 |
| 0% | B3 |

Target: human CD33 extracellular region F21N (human, UniProt P20138 22-259)
Sequence (P20138 other isoform, or with tags, fused parts or gaps F21N F21N): as the sequence (P20138 other isoform, or with tags, fused parts or gaps N20G N20G) above, with G9N, F10N counted along it
Assay: BLI Octet, IgG captured on AHC, CD33 analyte
Description: as §1

| % WT binding | Binder |
| --- | --- |
| 0% | B1 |
| 83% | B4 |
| 0% | B3 |

Target: human CD33 extracellular region F21Q (human, UniProt P20138 22-259)
Sequence (P20138 other isoform, or with tags, fused parts or gaps F21Q F21Q): as the sequence (P20138 other isoform, or with tags, fused parts or gaps N20G N20G) above, with G9N, F10Q counted along it
Assay: BLI Octet, IgG captured on AHC, CD33 analyte
Description: as §1

| % WT binding | Binder |
| --- | --- |
| 0% | B1 |
| 89% | B4 |
| 0% | B3 |

Target: human CD33 extracellular region W22S (human, UniProt P20138 18-259)
Sequence (P20138 other isoform, or with tags, fused parts or gaps W22S W22S): as the sequence (P20138 other isoform, or with tags, fused parts or gaps N20G N20G) above, with G9N, W11S counted along it
Assay: BLI Octet, IgG captured on AHC, CD33 analyte
Description: as §1

| % WT binding | Binder |
| --- | --- |
| 45.9% | B1 |
| 93% | B4 |
| 20.1% | B3 |

Target: human CD33 extracellular region W22D (human, UniProt P20138 18-259)
Sequence (P20138 other isoform, or with tags, fused parts or gaps W22D W22D): as the sequence (P20138 other isoform, or with tags, fused parts or gaps N20G N20G) above, with G9N, W11D counted along it
Assay: BLI Octet, IgG captured on AHC, CD33 analyte
Description: as §1

| % WT binding | Binder |
| --- | --- |
| 0% | B1 |
| 104% | B4 |
| 0% | B3 |

Target: human CD33 extracellular region W22H (human, UniProt P20138 18-259)
Sequence (P20138 other isoform, or with tags, fused parts or gaps W22H W22H): as the sequence (P20138 other isoform, or with tags, fused parts or gaps N20G N20G) above, with G9N, W11H counted along it
Assay: BLI Octet, IgG captured on AHC, CD33 analyte
Description: as §1

| % WT binding | Binder |
| --- | --- |
| 106% | B1 |
| 112% | B4 |
| 55% | B3 |

Target: human CD33 extracellular region F44P (human, UniProt P20138 18-259)
Sequence (P20138 other isoform, or with tags, fused parts or gaps F44P F44P): as the sequence (P20138 other isoform, or with tags, fused parts or gaps N20G N20G) above, with G9N, F33P counted along it
Assay: BLI Octet, IgG captured on AHC, CD33 analyte
Description: as §1

| % WT binding | Binder |
| --- | --- |
| 0% | B1 |
| 87.4% | B4 |
| 0% | B3 |

Target: human CD33 extracellular region P48D (human, UniProt P20138 18-259)
Sequence (P20138 other isoform, or with tags, fused parts or gaps P48D P48D): as the sequence (P20138 other isoform, or with tags, fused parts or gaps N20G N20G) above, with G9N, P37D counted along it
Assay: BLI Octet, IgG captured on AHC, CD33 analyte
Description: as §1

| % WT binding | Binder |
| --- | --- |
| 71.9% | B1 |
| 5.75% | B4 |
| 76.4% | B3 |

Target: human CD33 extracellular region P48S (human, UniProt P20138 18-259)
Sequence (P20138 other isoform, or with tags, fused parts or gaps P48S P48S): as the sequence (P20138 other isoform, or with tags, fused parts or gaps N20G N20G) above, with G9N, P37S counted along it
Assay: BLI Octet, IgG captured on AHC, CD33 analyte
Description: as §1

| % WT binding | Binder |
| --- | --- |
| 79.5% | B1 |
| 21.8% | B4 |
| 74% | B3 |

Target: human CD33 extracellular region Y50D (human, UniProt P20138 18-259)
Sequence (P20138 other isoform, or with tags, fused parts or gaps Y50D Y50D): as the sequence (P20138 other isoform, or with tags, fused parts or gaps N20G N20G) above, with G9N, Y39D counted along it
Assay: BLI Octet, IgG captured on AHC, CD33 analyte
Description: as §1

| % WT binding | Binder |
| --- | --- |
| 71.5% | B1 |
| 0% | B4 |
| 71% | B3 |

Target: human CD33 extracellular region Y50R (human, UniProt P20138 18-259)
Sequence (P20138 other isoform, or with tags, fused parts or gaps Y50R Y50R): as the sequence (P20138 other isoform, or with tags, fused parts or gaps N20G N20G) above, with G9N, Y39R counted along it
Assay: BLI Octet, IgG captured on AHC, CD33 analyte
Description: as §1

| % WT binding | Binder |
| --- | --- |
| 73.3% | B1 |
| 0% | B4 |
| 70.5% | B3 |

Target: human CD33 extracellular region Y50L (human, UniProt P20138 18-259)
Sequence (P20138 other isoform, or with tags, fused parts or gaps Y50L Y50L): as the sequence (P20138 other isoform, or with tags, fused parts or gaps N20G N20G) above, with G9N, Y39L counted along it
Assay: BLI Octet, IgG captured on AHC, CD33 analyte
Description: as §1

| % WT binding | Binder |
| --- | --- |
| 76.1% | B1 |
| 25.3% | B4 |
| 74.4% | B3 |

Target: human CD33 extracellular region Y50E (human, UniProt P20138 18-259)
Sequence (P20138 other isoform, or with tags, fused parts or gaps Y50E Y50E): as the sequence (P20138 other isoform, or with tags, fused parts or gaps N20G N20G) above, with G9N, Y39E counted along it
Assay: BLI Octet, IgG captured on AHC, CD33 analyte
Description: as §1

| % WT binding | Binder |
| --- | --- |
| 101% | B1 |
| 16% | B4 |
| 120% | B3 |

Target: human CD33 extracellular region Y50K (human, UniProt P20138 18-259)
Sequence (P20138 other isoform, or with tags, fused parts or gaps Y50K Y50K): as the sequence (P20138 other isoform, or with tags, fused parts or gaps N20G N20G) above, with G9N, Y39K counted along it
Assay: BLI Octet, IgG captured on AHC, CD33 analyte
Description: as §1

| % WT binding | Binder |
| --- | --- |
| 101% | B1 |
| 0% | B4 |
| 122% | B3 |

Target: human CD33 extracellular region R119A (human, UniProt P20138 18-259)
Sequence (P20138 other isoform, or with tags, fused parts or gaps R119A R119A): as the sequence (P20138 other isoform, or with tags, fused parts or gaps N20G N20G) above, with G9N, R108A counted along it
Assay: BLI Octet, IgG captured on AHC, CD33 analyte
Description: as §1

| % WT binding | Binder |
| --- | --- |
| 121% | B1 |
| 95% | B4 |
| 118% | B3 |
